Reference: PMC3680705 (The Journal of biological chemistry, 2006)

Biological target: T1, Drosophila Slit D2 (second leucine-rich repeat domain) (Drosophila, UniProt P24014 310-526, two N-linked glycans)
T1 sequence: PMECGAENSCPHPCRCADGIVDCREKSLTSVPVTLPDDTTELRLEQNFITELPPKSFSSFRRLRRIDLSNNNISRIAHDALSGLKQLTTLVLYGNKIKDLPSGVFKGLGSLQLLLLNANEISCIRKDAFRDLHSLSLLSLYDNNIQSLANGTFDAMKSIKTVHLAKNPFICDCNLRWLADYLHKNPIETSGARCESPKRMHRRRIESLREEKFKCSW
Assay: SEC

B1: Drosophila Robo IG1–2 (domain or fragment)
chain: not shown
stoichiometry N: 1
